Assay: soluble on expression in E. coli; label from the status in PepcDB or PDB records

| Sequence | soluble on expression in E. coli |
| --- | --- |
| MAHHHHHHMTVEDQVDHLLAPQRDGQENIQQRQEFNGFVHWGLLHGAHMVLEENQDTKRAHEFVNRYMRDIDLFEKWLEHPKVRAHIQKKFGIDMSAKFDKLMALTMAMYTRSKIQVYEDDPAGALKSLTASMSFITEGADLKKERHRKALGAVLVARGMIHCKLKSFHRADDDLTRALAFVKANRSATLYQLRAEAREALGHIDEARADEERAAQIWEEAEVITPGMDGAPRKFVT | soluble |
| MAHHHHHHMVLITSNCARVAAFTRKAACSGALCDRHRCISGGGRGDLFTRHAGAFKPPAFGVLRGLTHSSQTTHPQTGQLQARKRIQHAMHDRTLSGSGHHRTAVATWSYLLHSLRQNVEQAVPDALYEKLLTDEVPLTPAESRQLADAHRLLRFELQKRIGLLEDSLADAALPYLLQWPALFQRAWLRLPMDQGRASVTEANHDAVVPAPPSFVHAPAALPVTEWAPTLSPASPPACSNGLIGRGALVPRLAQLTRHVIRCVEEDLGRLEHVSEPREDGVPRSRRQVALEAAWRAQWASLLTWHAGVSYGMG | soluble |
| MAHHHHHHMVRKVWIGQGDVVLVSKRSFNKNDIVDVIHRYNPAEVRALVKDEVIPRDFRSSDERDAKNAHSDYVFVAENDDDGGADDDDQNVLDRNKVVLDDPLATFDEL | not soluble |
| MAHHHHHHMWINKIGNKSASFINHKHFHPGNIKNLERVWLAEENEKKRKEEEEKYLKKREEQYKLYELKKQLRKNEEENKNDVHNILYDINNELKKENSFKKKILHNSISNETTPNENIVNKILIRSKYDEDIFLKNHRSIYGSYYDKEKNKWGFKCCTNIDKNSKCTNNTNCSYNLNNNLIKKDLTKSKNKKKKKKKLIVDNSITAVLNKI | not soluble |
| MAHHHHHHMYFLGEERHFRVLSLSFGVRGLQGSVTSEAAKIQTQMALQQTAYSACSRKVHCVSKHYLDDPFVHFFSRDMTIVNSPLMNRGTWLRTVAIERSVLSFARNWSADGPLQVISFGSGVDTLYFRLKKDHSEVNIVRYIELDFPDLVAEKQRVIEKTERLNQLVGPEYELVPCDLQKPDELREILKRVARNDVPTVLLAEMVFVYLEERTTTAILELTLNDVLKRDMCVLLIAYDAIRPNDRFGEVMVNSLASSGVPLRGIKELPTPEAHAERCKRVGLKSVMATSMRQLYLSVPQETQEWLKKLEMVDDWDEWCIMHDHYCFVLATNKAEALPTIF | not soluble |
| MAHHHHHHMYGGNFSIPEFILKHEKYEKERLKIKRNKYLKRNIYKDNYSFIYFIFLHNINEHVEITTNNFDLLKGQLEELKKNTNNHIKGIILKNVIKSNNNNYSYFSKLYIPITNIYTCMPDNICSREKNKNPESKPFCDLIVSGYKNQMMNKIYEKFKKLGNQYV | not soluble |
| MAHHHHHHSLAKRIVGSTPKQDGFRMPGEFEPQEKVWMIWPERPDNWRDGGKPVQEAFTNVAKAISQFTPMNVVVSQQQFQNCRRQLPPEITVYEMSNNDAWVRDCGPSFVINDHGEIRGVDWTFNAWGGLVDGLYFPWDQDDLVAQKICEIEHVDSYRTDDFVLEGGSFHVDGQGTVLTTEMCLLSEGRNPQLSKEAIEQKLCDYLNVEKVLWLGDGIDPEETNGHVDDVACFIAPGEVACIYTEDQNSPFYEAAQDAYQRLLKMTDAKGRQLKVHKLCCPVKNVTIKGSFKIDFVEGTMPREDGDICIASYMNFLITNDGVIVPQYGDENDHLALEQVQTMFPDKKIVGVNTVEVVYGGGNIHCITQQEPKREG | not soluble |
| MAHHHHHHSLNVLSVSSEIYPLIKTGGLADVVGALPIALEAHGVRTRTLIPGYPAVKAAVTDPVKCFEFTDLLGEKADLLEVQHERLDLLILDAPAYYERSGGPYLGQTGKDYPDNWKRFAALSLAAARIGAGVLPGWRPDMVHAHDWQAAMTPVYMRYAETPEIPSLLTIHNIAFQGQFGANIFSKLALPAHAFGMEGIEYYNDVSFLKGGLQTATALSTVSPSYAEEILTAEFGMGLEGVIGSRAHVLHGIVNGIDADVWNPATDHLIHDNYSAANLKNRALNKKAVAEHFRIDDDGSPLFCVISRLTWQKGIDLMAEAVDEIVSLGGRLVVLGAGDVALEGALLAAASRHHGRVGVAIGYNEPLSHLMQAGCDAIIIPSRFEPCGLTQLYALRYGCIPVVARTGGLADTVIDANHAALASKAATGVQFSPVTLDGLKQAIRRTVRYYHDPKLWTQMQKLGMKSDVSWEKSAGLYAALYSQLISKGHEG | not soluble |
| MAHHHHHHVDDDDKMYQSAIKVEPASPPYYSEKTQLYNKPHEEPSNSLMAIECRVCGDKASGFHYGVHACEGCKGFFRRTIRLKLIYDRCDLNCRIHKKSRNKCQYCRFQKCLAVGMSHNAIRFGRMPQAEKEKLLAEISSDIDQLNPESADLRALAKHLYDSYIKSFPLTKAKARAILTGKTTDKSPFVIYDMNSLMMGEDKIKFKHITPLQEQSKEVAIRIFQGCQFRSVEAVQEITEYAKSIPGFVNLDLNDQVTLLKYGVHEIIYTMLASLMNKDGVLISEGQGFMTREFLKSLRKPFGDFMEPKFEFAVKFNALELDDSDLAIFIAVIILSGDRPGLLNVKPIEDIQDNLLQALELQLKLNHPESSQLFAKLLQKMTDLRQIVTEHVQLLQVIKKTETDMSLHPLLQEIYKDLY | soluble |
| MAHMVNGKVALVTGAAQGIGRAFAEALLLKGAKVALVDWNLEAGVQCKAALHEQFEPQKTLFIQCDVADQQQLRDTFRKVVDHFGRLDILVNNAGVNNEKNWEKTLQINLVSVISGTYLGLDYMSKQNGGEGGIIINMSSLAGLMPVAQQPVYCASKHGIVGFTRSAALAANLMNSGVRLNAICPGFVNTAILESIEKEENMGQYIEYKDHIKDMIKYYGILDPPLIANGLITLIEDDALNGAIMKITTSKGIHFQDYGSKENLYFQ | soluble |
| MAHVVVLGAGLGGSIMAYELHQQLRSEDRITVVTRDPTYHFVPSNPWVAVGWRTRSHISADLAPTMQRLGIAFRTVPATRLVPAENRVELADGTALDYDYLVVATGPELAFDEIEGFGPEGHTQSICHVDHAEAAHAAFERFCENPGPIVVGAAQGASCFGPAYEFAFILDAALRRRRIRDRVPMTFVTSEPYIGHLGLDGVGDTKGLLESALRSRHIKWITSARISRVEAGTMHVEEVAEGGATKPHALPFGYAMMLPAFRGVKAVSGIEGLSNPRGFTLVDPHQRNPTFPNIFAVGVCVAIPPMGVTPVPVGVPKTGFMIESMVTATAHNIGALVRGKEPDEVATWNAVCLADFGDRGIAFIAQPQIPPRNVNWSAEGRWVHFAKIAFEKYFLRKVKLGTAEPLYEWAAMKMLGIDKLKAARKGLEHHHHHH | not soluble |
| MAIIGIDLGTTNSLVATWSEDGATLIPNVLGEFLTPSVVSVDETGEILVGRIAKERLITHPQLTAATFKRFIGTEKKYELGTYTFSSEELSSFVIKSLKQDAEAYLNEEVTGAVISVPAYFNDTQRKSTKRAAEIAGLTVERLISEPTAAAIAYGLYQEESETKFLVFDLGGGTFDVSILELFEGIMDVKSIAGDNYLGGEDFTRSLMTFFLESHQLDPDSLDSKTLSLIYTQAERCKLTLCNESAATMNVVIQNQTYETSINRGEFEKIVTPLLLRLRYPIERALRDASLNPNDLDAVILIGGATRMPLVKSVISKMFGRMPYANINPDETVALGAAIQVALKERNKALEEVILTDVCPYSLGTSVVQEFGDGKSESGYFFPIIERNTPIPVSKVERLYTVKDKQQFITIDVYQGENRRVVNNLKLGELKIKIPPAPAGNESVDIRYTYDINGILEVEVISTSTGEKKRTIIQQNAGNLTDAEIEKRLLELRDIKIHPRDREENRLLLAKCERLYEELLGDERKKISILLQQFESVLTTQNDKKIKEASSILKEHIESMERWANR | not soluble |
| MAIIKRSAATDNPNIEILSTPEQIDVLSAEALMEALQGDDLEQILRAIHQLEAADSVEFQQHQAALFTLLDRDTEQNPCSDAVFSLLAIRNNDEITTRLIPLLDSEAPYLRNQAIEILQHSPQQLERHIQDLLNHQDPDVRIFAIDIIGLLPHQSVPEWLMQVLQHEEHINVIGTAIDRVAQLSDPNFSTILGEVKQRFSHVPYLVFACDVAIKRLNT | not soluble |
| MAIINGSQYIERVDNLQSNVWINGERVVGKLSEHPAFAGAIRSQARLYDAQHDPTKQPVLTFRTSTGELAGAAFLRPATKEDLEHRRLAFQEWARLTAGMMGRSPDYMNHRRDGARLGR | not soluble |
| MAIPGNMWIYDDGGALIKGGCDVADREFSIEFKGFHHNLSIPTDHATGKPTGTRQHSPMIIVKEFDYSSPYLYKAVATGQNLKSAEIKWYKISDAGQEVEYFNMLLEGVRIVSISPTMASPEDKNNNHLESVELRYEKITWKHCDGNIIFTDAWNERQTA | not soluble |
| MAISSRNTLLAALAFIAFQAQAVNVTVAYQTSAEPAKVAQADNTFAKESGATVDWRKFDSGASIVRALASGDVQIGNLGSSPLAVAASQQVPIEVFLLASKLGNSEALVVKKTISKPEDLIGKRIAVPFISTTHYSLLAALKHWGIKPGQVEIVNLQPPAIIAAWQRGDIDGAYVWAPAVNALEKDGKVLTDSEQVGQWGAPTLDVWVVRKDFAEKHPEVVKAFAKSAIDAQQPYIANPDVWLKQPENISKLARLSGVPEGDVPGLVKGNTYLTPQQQTAELTGPVNKAIIDTAQFLKEQGKVPAVANDYSQYVTSRFVQ | soluble |
| MAISSVGFACRSFSPVRTLQSHCLWKIRFNTVAAAIETMDESDGFATDSDRQDKVSDEPRDREWKQLNSKDLGLSSSMIAKSTRKVLNGLKSKGHDVYLVGGCVRDLILKRTPKDFDILTSAELREVSSFSTSAQNSSRNTRTECKESSGSDGDEDCIRLNNCLQRDFTINGLMFDPYAKVVYDYLGGMEDIRKAKVRTVIHAGTSFHQDCARILRAIRIAARLGFRMSKETAHFIKNLSLLVQRLDKGRILMEMNYMLAYGSAEASLRLLWKFGILEILLPIQAAYLARSGFRRRDKRTNMLLSLFANLDKLLAPDRPCHSSLWIAILAFHKALADKPRSPIVVAAFSLAVHNCGDILEAVEITKKITRPHDKSFFELVEPEENLDFQTLLDEVMDLDASIEDALNQMTDAYFISKAMSAYPQAPYSDLVFIPLQLYLRAGRIFDCVKNEETRIGFEAKQGSKIEYGSLNSGYFPEIRHVFARVVFDTVFPLNLSQEL | soluble |
| MAITEFDTSLPSIRQLQNLIKQAAPVEIKLVTGDAITGRVLWQDPTCVCIADENSRQTTIWKQAIAYLQPKG | soluble |
| MAITVKGLTNKLTRTQRRIAVVEFIFSLLFFLPKEAEVIQADFLEYDTKERQLNEWQKLIVKAFSENIFSFQKKIEEQQLKNQLEIQTKYNKISGKKIDLLTTAVVLCALSEQKAHNTDKPLLISEALLIMDHYSQGAEKKQTHALLDKLL | soluble |
| MAKAAAGKKASPVKRVKKGGKAKDPNAPKRAMSAFFFWMQENRERIKKPGMGVADVAKAAGVEWGKLTDKSRWEKKAADDKKRYEVDIANYKKSQ | soluble |
| MAKAGGITNAVNVGIAVQADWENREFISHISLNVRRLFEFLVQFGKPHSLTYFSVLGFEFN | not soluble |
| MAKAPDVVDLLALAVERGASDLVITVGLPPMLKIDGEFHPTEYEPLTPQETRRLMYALMDEKQQRIFEEEKELDFSFSLPGKGRYRVNVFLQRGSVGGVLRVVPSAVKSFEELGLPKNIAEIAMSPRGLVLVTGPTGSGKSTTLASMIDYINERKACHIVTIEDPIEFFHKHKRAIVNQREIGSDTKSFHKALRSVLRQAPDVILVGEMRDYETIAAAITAAETGHLVMGTLHTNSAPETIDRIVDVFPENQQEQVRVQLSNNLVAVLTQQLLPKAFGGGRVLAYELMIATPAVRALIREGKTHQLRSVIQTGGQYGMITMDACLADLYRRKLITYEMGLARAVDPKEFMRLAGAPEGARR | soluble |
